Results: patent US20240124607A1 (Merck Sharp & Dohme, published 2024)
Substitutions are numbered along the chain they refer to.

B1: AB0509 (antibody, V domains shown)
VH: QVQLVQSGGGLVQPGGSLRLSCAASGFTFTSYAMSWVRQAPGKGLEWVSAISGTGDSTFYADSVKGRFTFSRDNSKNTLYLQMNSLRAEDTAVYYCAKDLGWLQYGLFDYWGQGTLVTVSS
VL: DIQLTQSPATLSVSPGERATLSCRASQSVSSSYLAWYQQKPGQAPRLLIYGASSRATGIPDRFSGSGSGTDFTLTISRLEPEDFAVYYCQQYNNWPLTFGGGTKVEIK
notes: the scFv entries carry the stabilising cysteines, which the mAb may lack; also called mAb corresponding to AB0411
B2: ADI-27743 (antibody, V domains shown)
VH: QVQLQQWGAGLLKPSETLSLTCAVYGGSFSGYYWSWIRQPPGKGLEWIGEIDHSGSTNYNPSLKSRVTISVDTSKNQFSLKLSSVTAADTAVYYCARARGPWSFDPWGQGTLVTVSS
VL: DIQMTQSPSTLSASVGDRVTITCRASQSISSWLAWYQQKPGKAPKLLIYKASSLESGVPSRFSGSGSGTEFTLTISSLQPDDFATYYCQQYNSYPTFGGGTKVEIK
notes: named as a single clone only on the drawing sheets

How the values were obtained:
human CEACAM5 on cells [1] = biological target: T1, human CEACAM5 on cells (human, UniProt P06731 35-685); test: flow cytometry, LoVo cells
T1 construct: tumour cell lines with endogenous CEACAM5, or B16F10 engineered to express hCEACAM5; also called CEACAM5 on MKN-45, HPAF-II, SK-CO-1, LoVo, BxPC-3, Kato-III, LS-174T, ZR-75-30; hCEACAM5-B16F10
T1 sequence: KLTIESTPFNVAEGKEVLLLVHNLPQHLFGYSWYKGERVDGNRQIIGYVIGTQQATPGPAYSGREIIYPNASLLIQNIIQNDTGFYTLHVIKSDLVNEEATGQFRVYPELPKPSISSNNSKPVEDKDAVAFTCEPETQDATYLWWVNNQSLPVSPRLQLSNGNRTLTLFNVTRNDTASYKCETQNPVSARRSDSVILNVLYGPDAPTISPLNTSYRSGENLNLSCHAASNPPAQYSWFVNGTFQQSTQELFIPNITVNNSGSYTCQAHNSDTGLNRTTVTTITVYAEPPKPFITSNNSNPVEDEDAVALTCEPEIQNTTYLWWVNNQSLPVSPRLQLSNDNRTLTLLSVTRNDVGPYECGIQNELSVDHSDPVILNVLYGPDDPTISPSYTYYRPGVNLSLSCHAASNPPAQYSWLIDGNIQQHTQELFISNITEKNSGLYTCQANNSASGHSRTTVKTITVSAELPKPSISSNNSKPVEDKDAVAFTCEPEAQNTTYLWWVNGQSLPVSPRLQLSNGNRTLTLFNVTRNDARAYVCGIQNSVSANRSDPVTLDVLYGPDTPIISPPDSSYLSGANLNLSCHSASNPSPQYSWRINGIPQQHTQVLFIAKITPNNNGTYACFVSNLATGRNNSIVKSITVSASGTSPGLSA

human CEACAM5 on cells [2] = biological target: T1, human CEACAM5 on cells; test: flow cytometry, BxPC-3 cells
human CEACAM5 on cells [3] = biological target: T1, human CEACAM5 on cells; test: flow cytometry, MKN-45 cells
human CEACAM5 on cells [4] = biological target: T1, human CEACAM5 on cells; test: flow cytometry, SK-CO-1 cells
human CEACAM5 on cells [5] = biological target: T1, human CEACAM5 on cells; test: flow cytometry, Kato-III cells
human CEACAM5 on cells [6] = biological target: T1, human CEACAM5 on cells; test: flow cytometry, MKN-45 cells; MKN-45 cells
human NKG2D-Fc [7] = biological target: T2, human NKG2D-Fc (human, UniProt P26718 73-216); test: ELISA on plate-adsorbed recombinant human NKG2D-Fc, anti-human kappa-HRP, OD 450 nm
T2 construct: extracellular domain; also called recombinant human NKG2D-Fc; NKG2D-Fc-biotin
T2 sequence (looked up): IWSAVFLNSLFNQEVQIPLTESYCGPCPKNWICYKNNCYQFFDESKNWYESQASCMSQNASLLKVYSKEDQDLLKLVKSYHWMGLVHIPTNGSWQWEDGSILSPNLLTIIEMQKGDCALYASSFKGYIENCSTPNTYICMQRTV
Description: (§1) The nucleic acid sequences of human, mouse or cynomolgus NKG2D ectodomains were fused with nucleic acid sequences encoding human IgG1 Fc domains and introduced into mammalian cells to be expressed. After purification, NKG2D-Fc fusion proteins were adsorbed to wells of microplates. After blocking the wells with bovine serum albumin to prevent non-specific binding, NKG2D-binding domains were titrated and added to the wells pre-adsorbed with NKG2D-Fc fusion proteins. Primary antibody binding was detected using a secondary antibody which was conjugated to horseradish peroxidase and specifically recognizes a human kappa light chain to avoid Fc cross-reactivity. 3,3′,5,5′-Tetramethylbenzidine (TMB), a substrate for horseradish peroxidase, was added to the wells to visualize the binding signal, whose absorbance was measured at 450 nm and corrected at […]. An NKG2D-binding domain clone, an isotype control or a positive control (comprising heavy chain and light chain variable domains selected from the group consisting of: SEQ ID NOs: 526-529, or anti-mouse NKG2D clones MI-6 and CX-5 available at eBioscience) was added to each well.

mouse NKG2D-Fc [8] = biological target: T3, mouse NKG2D-Fc (mouse, UniProt O54709 90-232); test: ELISA on plate-adsorbed recombinant mouse NKG2D-Fc, anti-human kappa-HRP, OD 450 nm
T3 construct: extracellular domain; also called Mouse NKG2D-Fc-biotin
T3 sequence (looked up): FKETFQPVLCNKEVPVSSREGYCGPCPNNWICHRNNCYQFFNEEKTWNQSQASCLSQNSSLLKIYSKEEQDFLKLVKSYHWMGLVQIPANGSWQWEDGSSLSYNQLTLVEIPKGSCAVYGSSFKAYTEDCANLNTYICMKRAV
Description: as §1

cynomolgus NKG2D-Fc = biological target: T4, cynomolgus NKG2D-Fc (cynomolgus monkey, UniProt P61252 73-216); test: ELISA on plate-adsorbed recombinant cynomolgus NKG2D-Fc, anti-human kappa-HRP, OD 450 nm
T4 construct: extracellular domain
T4 sequence (looked up): T2 sequence (looked up) with D43N, T133I
Description: as §1

human NKG2D-Fc [9] = biological target: T2, human NKG2D-Fc; test: competition ELISA on plate-adsorbed human NKG2D-Fc; blocked ligand ULBP-6-His-biotin
Procedure: Recombinant human NKG2D-Fc proteins were adsorbed to wells of a microplate, and the wells were blocked with bovine serum albumin to reduce non-specific binding. A saturating concentration of ULBP-6-His-biotin was added to the wells, followed by addition of the NKG2D-binding domain clones. After a 2-hour incubation, wells were washed and ULBP-6-His-biotin that remained bound to the NKG2D-Fc coated wells was detected by streptavidin-conjugated to horseradish peroxidase and TMB substrate. Absorbance was measured at 450 nm and corrected at […]. After subtracting background, specific binding of NKG2D-binding domains to the NKG2D-Fc proteins was calculated from the percentage of ULBP-6-His-biotin that was blocked from binding to the NKG2D-Fc proteins in wells.

human NKG2D-Fc [10] = biological target: T2, human NKG2D-Fc; test: competition ELISA: human NKG2D-Fc-biotin binding to plate-adsorbed MICA-Fc is blocked
Procedure: Recombinant human MICA-Fc proteins were adsorbed to wells of a microplate, and the wells were blocked with bovine serum albumin to reduce non-specific binding. NKG2D-Fc-biotin was added to wells followed by NKG2D-binding domains. After incubation and washing, NKG2D-Fc-biotin that remained bound to MICA-Fc coated wells was detected using streptavidin-HRP and TMB substrate. Absorbance was measured at 450 nm and corrected at […]. After subtracting background, specific binding of NKG2D-binding domains to the NKG2D-Fc proteins was calculated from the percentage of NKG2D-Fc-biotin that was blocked from binding to the MICA-Fc coated wells.

mouse NKG2D-Fc [11] = biological target: T3, mouse NKG2D-Fc; test: competition ELISA: mouse NKG2D-Fc-biotin binding to plate-adsorbed Rae-1delta-Fc is blocked
Procedure: Recombinant mouse Rae-1delta-Fc (purchased from R&D Systems) was adsorbed to wells of a microplate, and the wells were blocked with bovine serum albumin to reduce non-specific binding. Mouse NKG2D-Fc-biotin was added to the wells followed by NKG2D-binding domains. After incubation and washing, NKG2D-Fc-biotin that remained bound to Rae-1delta-Fc coated wells was detected using streptavidin-HRP and TMB substrate. Absorbance was measured at 450 nm and corrected at […]. After subtracting background, specific binding of NKG2D-binding domains to the NKG2D-Fc proteins was calculated from the percentage of NKG2D-Fc-biotin that was blocked from binding to the Rae-1delta-Fc coated wells.

Row | Binder | EC50 (human CEACAM5 on cells [1]) | Max FOB (human CEACAM5 on cells [1]) | EC50 (human CEACAM5 on cells [2]) | Max FOB (human CEACAM5 on cells [2]) | Max FOB (human CEACAM5 on cells [3]) | EC50 (human CEACAM5 on cells [4]) | Max FOB (human CEACAM5 on cells [4]) | EC50 (human CEACAM5 on cells [5]) | Max FOB (human CEACAM5 on cells [5]) | EC50 (human CEACAM5 on cells [6]) | EC50 (read off the curve) (human NKG2D-Fc [7]) | EC50 (read off the curve) (mouse NKG2D-Fc [8]) | EC50 (read off the curve) (cynomolgus NKG2D-Fc) | IC50 (read off the curve) (human NKG2D-Fc [9]) | IC50 (read off the curve) (human NKG2D-Fc [10]) | IC50 (read off the curve) (mouse NKG2D-Fc [11])
1 | B1 | 3.25 nM | 19 fold over background | 4.28 nM | 19 fold over background | 107 fold over background | 8.67 nM | 37 fold over background | 1.17 nM | 5 fold over background | < 9.05 nM | – | – | – | – | – | –
2 | B2 | – | – | – | – | – | – | – | – | – | – | ~0.4 nM | ~0.2 nM | ~0.3 nM | ~3 nM | ~20 nM | ~20 nM
